From patent US12144818B2, “Method for treating cancer in a human patient by administering an anti-CD37 immunoconjugate using various dosing regimens” (DEBIOPHARM INTERNATIONAL, S.A., priority 2018, dated 2024)

Tests used:
[1] = QW versus Q3W regimen, with rituximab
Protocol: Adverse events are monitored continuously throughout the study. Adverse events include any noxious, pathologic, or unintended change in anatomical, physiologic, or metabolic function as indicated by physical signs, symptoms, or laboratory changes occurring in any phase of a clinical study, whether or not considered study drug-related. PK parameters that are evaluated include, but are not limited to: Cmax, Tmax, Terminal half-life (t1/2), Vss, CL, AUC0-t, AUCinf.

CD37 [2] = target: T1, CD37 (Homo sapiens, UniProt P11049); assay: Theoretical receptor occupancy derived from observed Cmax, monotherapy Phase 1 study; type: in vivo; conditions: even at low dose levels
T1 construct: endogenous in cells; host or cells: CD3+ T and CD56+ NK lymphocytes in blood samples from DLBCL patients of Cohorts A and B
T1 sequence (P11049 1-281): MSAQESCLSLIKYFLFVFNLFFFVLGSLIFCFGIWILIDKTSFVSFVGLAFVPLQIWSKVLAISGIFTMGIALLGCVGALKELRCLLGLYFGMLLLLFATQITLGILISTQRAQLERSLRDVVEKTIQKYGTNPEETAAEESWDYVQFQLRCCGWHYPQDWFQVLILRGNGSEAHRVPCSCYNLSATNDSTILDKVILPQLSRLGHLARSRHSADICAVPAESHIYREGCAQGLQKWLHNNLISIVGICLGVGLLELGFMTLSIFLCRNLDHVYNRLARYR
Protocol: Therefore, a 0.4 mg/kg loading dose followed by 2 weekly doses of 0.2 mg/kg is expected to provide adequate target saturation across a 3-weeks cycle.

CD37 [3] = target: T1, CD37; assay: CD37 receptor occupancy on CD3+T and CD56+NK cells of Cohort A and B subjects; type: in vivo
From the text: The maximum RO observed at C1D2 (cycle 1-dose 2) and C1D3 was greater than 90% for both cohorts.

[4] = tested on: panel of cell lines representative of diverse NHL subtypes (ABC and GCB DLBCL, CLL, MCL); conditions: in combination with rituximab; described in WO 2016/200676; cited from earlier work
[5] = low doses such as 0.4 mg/kg and 0.2 mg/kg; cited from earlier work
[6] = Phase 1 monotherapy study, safety; type: in vivo, human
Protocol: As such, a more frequent QW dosing schedule with 0.4/0.2/0.2 mg/kg (combined with rituximab Q3W at 375 mg/m^2) should not increase the risk of neutropenia.

Debio 1562: immunoconjugate containing the huCD37-3 antibody, the SMCC linker, and the DM1 maytansinoid
safety [1]: comparable in the QW regimen and the Q3W regimen | saturation of the CD37 sites (theoretical receptor occupancy) (CD37 [2]): > 95% | CD37 receptor occupancy (RO) after administration (CD37 [3]; C1D1, CD3+T and CD56+NK lymphocytes, Cohorts A and B): greater than 80% | maximum RO (CD37 [3]; C1D2 and C1D3, both cohorts): greater than 90% | RO just before re-administration (CD37 [3]; samples just before re-administration in cycle 2 and cycle 3): No RO was observed | pro-apoptotic activity of the combination [4]: synergistic pro-apoptotic activity | clearance [5]: substantially higher at low doses | half-life [5]: lower | maximum tolerated dose (MTD) ([6]; Phase 1, without G-CSF): 1 mg/kg | neutrophil count ([6]; majority of patients, single Q3W dosing with 0.2-0.4 mg/kg, Phase 1): no decrease in neutrophil count
